Each block holds one molecule with its values, some of them ahead of it.
B6: Egr^269–409 (TNF-homology domain of Eiger, tryptic fragment) (domain or fragment, Drosophila melanogaster, UniProt Q8MUJ1-2 269-409, looked up)
chain: DSRPAAHFHLSSRRRHQGSMGYHGDMYIGNDNERNSYQGHFQTRDGVLTVTNTGLYYVYAQICYNNSHDQNGFIVFQGDTPFLQCLNTVPTNMPHKVHTCHTSGLIHLERNERIHLKDIHNDRNAVLREGNNRSYFGIFKV
notes: Trimer in the crystal (threefold crystallographic symmetry); also called Egr-TNF; TNF domain of Egr
B7: Egr^146–409 (extracellular portion of Eiger, His6-tagged) (domain or fragment, Drosophila melanogaster, UniProt Q8MUJ1-2 146-409, looked up)
chain: GADYEDYTDMLNKLNNAHTGTTPTSETTAEGEGETDSASSASNDDNVFDDFTSYNAHKKKQERKSRSIADVRNEEQNIQGNHTELQEKSSNEATSKESPAPLHHRRRMHSRHRHLLVRKARSEDSRPAAHFHLSSRRRHQGSMGYHGDMYIGNDNERNSYQGHFQTRDGVLTVTNTGLYYVYAQICYNNSHDQNGFIVFQGDTPFLQCLNTVPTNMPHKVHTCHTSGLIHLERNERIHLKDIHNDRNAVLREGNNRSYFGIFKV
notes: Cloned in a pET43 vector; Trimer by static light scattering; also called Egr/TNF; Egr extracellular domain; source: E. coli SHuffle cells, purified (HiTrap chelating Ni column, Superdex-200 SEC)

Assays:
[1] = target: Egr^146–409 (extracellular portion of Eiger, His6-tagged) (Drosophila melanogaster) (UniProt Q8MUJ1); test: ITC; MicroCal PEAQ-ITC, 25 °C, 0.02 M Tris-HCl pH 8.0, 0.3 M NaCl; Grnd^30–97 at 100–340 μM titrated into 8 μM Egr^146–409; Wgn^78–201 at 4.5 mM titrated into 410 μM Egr^146–409; single-site fit
[2] = target: B6; test: SEC; 30 μM Egr^146–409 incubated with Grnd^30–97 in a 1:1.3 molar ratio, treated with trypsin, loaded on a Superdex-5/150 column; fractions on Coomassie SDS-PAGE; conditions: both partners purified
[3] = target: T1, Strep-Egr^146–409 Asn333Ala (Drosophila melanogaster, UniProt Q8MUJ1-2 146-409, Asn333 with Ala); test: pull-down; 2 μM strep-tagged Egr^146–409 adsorbed on Strep-tactin beads, 10 μM Grnd^30–97 in solution, 1 h at 4 °C, 0.01 M Hepes pH 7.5, 0.1 M NaCl, 5% glycerol, 0.05% Tween, 0.5 mM EDTA; Coomassie staining; conditions: both partners purified
T1 construct: also called substitution of the Egr glycosylation site Asn333 with Ala; source: mutation by QuikChange
T1 sequence (looked up): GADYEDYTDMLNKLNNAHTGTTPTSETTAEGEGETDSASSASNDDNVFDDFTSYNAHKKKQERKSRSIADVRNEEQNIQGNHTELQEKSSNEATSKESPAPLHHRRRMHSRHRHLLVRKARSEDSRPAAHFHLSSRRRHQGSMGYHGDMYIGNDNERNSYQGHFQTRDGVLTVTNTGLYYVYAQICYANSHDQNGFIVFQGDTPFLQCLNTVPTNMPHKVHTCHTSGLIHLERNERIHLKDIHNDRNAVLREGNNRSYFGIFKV

[4] = target: B7; test: ITC; MicroCal PEAQ-ITC, 25 °C, 0.02 M Tris-HCl pH 8.0, 0.3 M NaCl; Grnd^30–97 at 100–340 μM titrated into 8 μM Egr^146–409; Wgn^78–201 at 4.5 mM titrated into 410 μM Egr^146–409; single-site fit; conditions: both partners purified
Strep-Egr^146–409 = target: T2, Strep-Egr^146–409 (Drosophila melanogaster, UniProt Q8MUJ1-2 146-409); test: pull-down; 2 μM strep-tagged Egr^146–409 adsorbed on Strep-tactin beads, 10 μM Grnd^30–97 in solution, 1 h at 4 °C, 0.01 M Hepes pH 7.5, 0.1 M NaCl, 5% glycerol, 0.05% Tween, 0.5 mM EDTA; Coomassie staining; conditions: both partners purified
T2 construct: probably SHuffle cells as for the His6 construct
T2 sequence (looked up): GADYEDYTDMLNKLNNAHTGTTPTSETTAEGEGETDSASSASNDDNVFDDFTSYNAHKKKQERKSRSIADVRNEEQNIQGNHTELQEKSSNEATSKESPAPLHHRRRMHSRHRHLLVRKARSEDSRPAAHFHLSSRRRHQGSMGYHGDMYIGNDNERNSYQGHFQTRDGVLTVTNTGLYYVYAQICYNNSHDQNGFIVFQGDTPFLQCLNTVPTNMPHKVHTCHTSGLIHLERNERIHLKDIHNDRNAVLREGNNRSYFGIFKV

[5] = target: the molecule itself; test: crystal structure; Egr^269–409:Grnd^30–81 complex, 2.02 Å, space group P321, one 1:1 complex per asymmetric unit, 3:3 hetero-hexamer by the crystallographic threefold axis
Grnd^30–97 His66Ala = target: T3, Grnd^30–97 His66Ala (Drosophila melanogaster, UniProt Q9VJ83 30-97, His66Ala); test: ITC
T3 sequence: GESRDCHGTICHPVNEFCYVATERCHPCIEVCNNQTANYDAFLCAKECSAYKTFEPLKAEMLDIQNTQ

Grnd^30–97 Asn67Ala = target: T4, Grnd^30–97 Asn67Ala (Drosophila melanogaster, UniProt Q9VJ83 30-97, Asn67Ala); test: ITC
T4 sequence: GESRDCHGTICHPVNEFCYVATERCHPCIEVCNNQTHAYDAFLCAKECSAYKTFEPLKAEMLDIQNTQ

Grnd^30–97 Glu52Ala = target: T5, Grnd^30–97 Glu52Ala (Drosophila melanogaster, UniProt Q9VJ83 30-97, Glu52Ala); test: ITC
T5 sequence: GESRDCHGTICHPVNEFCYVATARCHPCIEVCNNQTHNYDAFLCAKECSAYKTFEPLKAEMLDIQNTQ

[6] = target: the molecule itself; test: SEC-MALS; static light scattering, Viscotek GPCmax/TDA with a Superdex 200-10/300 increase column, 0.02 M Tris-HCl pH 8.0, 0.3 M NaCl, 5% glycerol; about 75 μL at about 2 mg/mL (Egr alone and the two complexes)

Molecule: Wgn^78–201 (whole extracellular domain of Wengen) (from UniProt Q9VWS4 78-201) (domain or fragment)
Kd [1]: 12 µM

B2: Grnd^30–97 (extracellular domain of Grindelwald) (domain or fragment, Drosophila melanogaster, UniProt Q9VJ83 30-97, looked up)
chain: GESRDCHGTICHPVNEFCYVATERCHPCIEVCNNQTHNYDAFLCAKECSAYKTFEPLKAEMLDIQNTQ
notes: Grindelwald (Grnd), Drosophila melanogaster, extracellular domain, residues 30-97; pETM14 vector; His6-tag removed with PreScission protease; Monomer by static light scattering; also called wild-type Grnd^30–97; source: E. coli SHuffle B cells (NEB), purified (Ni HiTrap, PreScission, Resource-Q); not shown: His6, N-terminal, cleaved
binding result [3]: binds
Kd [4]: ~0.03 µM

Molecule: B6
stoichiometry N [5]: 3

Molecule: B7
Kd (Grnd^30–97 His66Ala): 4.8 µM
Kd (Grnd^30–97 Asn67Ala): 4.5 µM
Kd (Grnd^30–97 Glu52Ala): 1.3 µM
stoichiometry N [6]: 3

Now from value to molecule:

binding result [2]: binds
B1: Grnd^30–81 (tryptic fragment of the extracellular domain of Grindelwald) (domain or fragment, Drosophila melanogaster, UniProt Q9VJ83 30-81, looked up)
chain: GESRDCHGTICHPVNEFCYVATERCHPCIEVCNNQTHNYDAFLCAKECSAYK
notes: Grindelwald (Grnd), Drosophila melanogaster, residues 30-81; limits assigned by mass spectrometry; models hold residues 34-81 (free) and 31-81 (complex); also called Grnd-ECD; Grnd-CRD

binding result (Strep-Egr^146–409): binds
binding result [4]: binds
B3: Grnd^30–97 Glu52Ala (domain or fragment, Drosophila melanogaster, UniProt Q9VJ83 30-97, looked up)
chain: GESRDCHGTICHPVNEFCYVATARCHPCIEVCNNQTHNYDAFLCAKECSAYKTFEPLKAEMLDIQNTQ
notes: Grindelwald (Grnd), Drosophila melanogaster, extracellular domain, residues 30-97; also called Glu52Ala^Grnd; Grnd-Glu52Ala; source: E. coli SHuffle B cells, purified (as Grnd^30–97); mutation by QuikChange; not shown: His6, N-terminal, cleaved

binding result (Strep-Egr^146–409): binds
binding result [4]: binds
B4: Grnd^30–97 Asn67Ala (domain or fragment, Drosophila melanogaster, UniProt Q9VJ83 30-97, looked up)
chain: GESRDCHGTICHPVNEFCYVATERCHPCIEVCNNQTHAYDAFLCAKECSAYKTFEPLKAEMLDIQNTQ
notes: Grindelwald (Grnd), Drosophila melanogaster, extracellular domain, residues 30-97; also called Asn67Ala^Grnd; Grnd-Asn67Ala; source: E. coli SHuffle B cells, purified (as Grnd^30–97); mutation by QuikChange; not shown: His6, N-terminal, cleaved

binding result (Strep-Egr^146–409): binds
binding result [4]: binds
B5: Grnd^30–97 His66Ala (domain or fragment, Drosophila melanogaster, UniProt Q9VJ83 30-97, looked up)
chain: GESRDCHGTICHPVNEFCYVATERCHPCIEVCNNQTANYDAFLCAKECSAYKTFEPLKAEMLDIQNTQ
notes: Grindelwald (Grnd), Drosophila melanogaster, extracellular domain, residues 30-97; also called His66Ala^Grnd; Grnd-His66Ala; source: E. coli SHuffle B cells, purified (as Grnd^30–97); mutation by QuikChange; not shown: His6, N-terminal, cleaved

— paper PMC8024323, “Drosophila TNFRs Grindelwald and Wengen bind Eiger with different affinities and promote distinct cellular functions” (Nature Communications, 2021)
